Laboratory results: PMC8924901 (Journal of molecular biology, 2021)

Molecular target: T1, rat PLCγ1 isolated cSH2 domain (H663-E759) (rat, UniProt P10686 663-759)
T1 sequence (looked up): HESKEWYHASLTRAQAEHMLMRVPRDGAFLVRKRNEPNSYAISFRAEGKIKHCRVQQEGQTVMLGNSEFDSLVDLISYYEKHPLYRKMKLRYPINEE
Assay: NMR titration

binding result: binds
B1: rat PLCγ1 isolated split PH (sPH) domain (D485-N529/N865-R936 with a C-terminal 6X-His tag) (domain or fragment, UniProt P10686 485-529, looked up)
chain: DISNSIKNGILYLEDPVNHEWYPHYFVLTSSKIYYSEETSSDQGNNSPLGDLLRGVLDVPACQIAIRPEGKNNRLFVFSISMPSVAQWSLDVAADSQEELQDWVKKIREVAQTADAR
